Target: Burkholderia pseudomallei K96243 sphingosine-1-phosphate lyase S1PL2021 (shorter ORF of BPSS2021, st (Burkholderia pseudomallei K96243))
Assay: SEC

With “Burkholderia pseudomallei K96243 sphingosine-1-phosphate lyase S1PL2021 (shorter ORF of BPSS2021, st (enzyme)” the stoichiometry N was 2.
